Test results as given in article PMC3814384, “YoeB–ribosome structure: a canonical RNase that requires the ribosome for its specific activity” (Nucleic Acids Research, 2013).

Biological target: the molecule itself
Assay: crystal structure; T. thermophilus 70S ribosome 4.4 uM with mRNA MOO4b (2'-O-methylated A-site codon) and tRNAfMet, YoeB added to 44 uM, buffer G (5 mM HEPES pH 7.5, 50 mM KCl, 10 mM NH4Cl, 10 mM Mg-acetate, 6 mM 2-mercaptoethanol); pre-cleavage state, 3.35 A

B1: Escherichia coli YoeB (enzyme, UniProt P69348 1-84, looked up)
chain: MKLIWSEESWDDYLYWQETDKRIVKKINELIKDTRRTPFEGKGKPEPLKHNLSGFWSRRITEEHRLVYAVTDDSLLIAACRYHY
notes: In the crystal two copies (monomers A and B) sit on the ribosomal A site as a homodimer; also called YeoB; monomer A; source: E. coli BL21(DE3), co-expressed with His-tagged YefM
stoichiometry N: 2
